Experimental data as given in the domain aggregation screens of Martell et al. (2025).

Test: soluble fraction after stress (log2 fold change); higher = more stays soluble; pooled small domains, quantitative proteomics
Settings: stress: 75 degC
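Also: 20 min heating vs room temperature control held 20 min.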

HMNSGFEVFREVVNQGSFIGAANALGISAPAVSKQIKLLENRLGLLLLYRTTRNVTLTDIGKQLFDTLDNS
soluble fraction (log2): -1.98

HMNSKKRQAILESLRSVTDHPTAEMIYNRLKPEYPDLSLGTVYRNLAMFLEEGQVISVGTVDGQERYDAR
soluble fraction (log2): -0.564

HMNSKSFIFHIEDEEGIRLDVFLADNLPDVSRSYVQKLIDEEHVKVNGQSAKSRLKTVSGMEITVDVPAPK
soluble fraction (log2): -0.56

HMNSLGYSDFVVDVQNERVASVVIEGLIINGERRDGTKFRTVLPTIGDQRLMDDLINHNVKVLARE
soluble fraction (log2): -0.375

HMNSLTVPDITNRTLAEASQVLLDMGLTPIPDAVAKDGVGDDVVYAQSPPPNVGAREGDVVTITYNPA
soluble fraction (log2): 0.452

HMNSNISYSEFLSQVEKGTINSVEITGNSIKGIYADGGEFITFSPGDPGLIDKLQRSDIEILATPPA
soluble fraction (log2): 0.233

HMNSPSKVIDISQLRKGMFVQLDLGWMSHPFAVGSFKVSTDEQIQTLRGLGLSEVRYIPEKSDPA
soluble fraction (log2): -1.2

HMNSQSGKGGVGYILETKYGLNLPPKMREAMGYAAKGVSDHLHKELHPDEIFDLFKKTFENVGQPYS
soluble fraction (log2): -0.271

HMNSSLLGKRIKSLREDHDLTQKELSLMIGLTPKMISFYENNQRTPPLDILLKLAKIFEVSVDYLIGYA
soluble fraction (log2): -0.615

HMNSTRAPYLLDFEEDAAIREARRAGLVPRIARQPSGEPVGRVILQSHDYDYPMKRGDTILITISSG
soluble fraction (log2): -0.833

HMNSTSGIAGVGYWINQYRKKKGMSPVDKKSPLVRRVYDWVQEQYDEGRITIISDAELTRQTELAMEA
soluble fraction (log2): -0.482

HMNSVAASLREISIKVSGTEDADKVSRLQELSQMPKLDASGIAEANTLLEQLRAKYGDLGLSVDTARGRIV
soluble fraction (log2): 0.494

HMNSVSIAPEMLNWVIAHIQMNSLPKQIVEHLTAWISGQKEPTFNQIEKVSRATGIPLGYFFLEQPPKE
soluble fraction (log2): -2.51

HMNSYKGELLVDDKNIRLDLYLFNQFNFFSRTKIKNYILKGNVLVNNNKTSPSYILKGSEKIYYDFSVS
soluble fraction (log2): -3.21

HMNTEVDKVLLRSGEAYFGEVLLRNDELVMMKTQDGARFQFPVSEIKSIEKVSVADALRHINS
soluble fraction (log2): 0.263

HMNTGFPIILETSDAANLTVGAPIMYRGVEVGKIRNMELNSLGDRVLIHILIGHKYQHLVRQNSEFWFSS
soluble fraction (log2): -4

HMNTKDRIKQLAAQRKITIAELERKLHIANGTIGKWDKQNPSIEPLKKLADYFGVTTDYLLGRT
soluble fraction (log2): -0.381

HMNTKLKPLYLLDIFREMTDERHRMTVPELLEELQRRGITAERKGIYRDIDALIQYGADIKHTGTGYYLAR
soluble fraction (log2): -0.93

HMNTKLSYSDLIEKIEAGQVEKVELDAGGSSAIVKLKNDNIEKRVNVPSIDNLMENLQDNMKTGNISVTE
soluble fraction (log2): 0.168

HMNTLLGLSNSFQDNKDLENANSISRRFISYRPRSEAELRIRLLKVFSHEIVLESVAQMYREGLLNDQRF
soluble fraction (log2): -3.18

HMNTLTKEDIQKAIDVIPIDFKSVVILNLVEGFSYKETAEILEIPIGTVMSRLHRGRKILQKLLWEYSSSK
soluble fraction (log2): -1.4

HMNTTTTKVVSVSSLNMRSGPSTSYNIIEVLTKDTQVEVISVEDGWAKIKYNSKTGYVSNQYLSDKK
soluble fraction (log2): -0.934

HMNTVAKELATQATQAKKRAFLDAYAETGIIKRAAEIAGIERKSHYLWLEKDPEYVEAFKSAGEQ
soluble fraction (log2): 0.427

HMNTVSVGNLGLSVRAVNALKQAGIDTYDKLQELSWEELLLIPKLGQVTAAEIYRFITSYKKG
soluble fraction (log2): -1.56

HMNVAETITLGKRLFNHALTILGKKQRNISRKQLKNFLNDLGLKDSKDLYESIGTGDKNPILMAQLLLG
soluble fraction (log2): -0.512

HMNVAVGNSKLVGVAGERAYFVNGVGAAARTLSLQVGDALPTGEKVRRIERDGVTMTGASGDVRLSVLP
soluble fraction (log2): 0.00812

HMNVDALIGTKGIVVQPIRPFAVGQVKVNGQVWSAVGKTPETDIEQGREVKVHAIEGVKLVVTPT
soluble fraction (log2): 0.501

HMNVDALVGMPARVTRAFVQGAGEVKLDNGETWTARLSAGVTDAEASVGQTVSVIAVRGAAVEVAPE
soluble fraction (log2): 0.0183

HMNVDSLIGKKARVLEDIDNLNAKGQVSIDGMEWTARSEDGSEIKKDALVEVVAIEGVKAIVKQ
soluble fraction (log2): 0.242

HMNVEQQNQARENIKRLMEEQGLSQPKLSEKAGIAFGTLSRILRGKQDLTIQTAEKIADALGLSVYDLAE
soluble fraction (log2): 0.31

HMNVKVSVDDIARPGLMASGRVTFADGNRGMWYVDEMGRLGIDPEVEGYQPSEADIQAFQRELQSVMES
soluble fraction (log2): -0.00333

HMNVNSQQINDLEKSIQKFFDKDIKNYLNQNLSNDRMISKNEIDKIILLYYGSDKEPTLDEIKSIFN
soluble fraction (log2): -0.216

HMNVNTHKTLILNSTFQPLSLATPQRALALLFSKKINVLKESDIKLRSVGQSVAIPKVAVLTYFVKA
soluble fraction (log2): -0.409

HMNVPFGYTIKDGLLVEQPDEKAILDNILTWKKGQMTVAEIAKKTGMETWKIYGILNYWRNK
soluble fraction (log2): -1.14

HMNVRAYKVSKESELTVEEKLEAVRGYGVADLLYVIREFEENPGKYEPEVIKLIVQQLTDKGIM
soluble fraction (log2): 0.0392

HMNVRRSRTHEKVTTYQGYDIFINKEPNQRGMFTSAPMRGDNEYSNLRGEGKSKQDAVNMTKEKIDEIAA
soluble fraction (log2): 0.748

HMNVSVSITKELQVYINDERISSSALESTLKSKLAGIENPTIILRAEEGVPIEKAVNVMDIANRNRYKIVL
soluble fraction (log2): -1.32

HMNVYAGTMINVVGLQVEDAASRLRGLFYSVKIVEEESQEPDGKVLRQNIAEGTKDLEAWTLVELTVSKYV
soluble fraction (log2): -2.73

HMNVYEVKFGDTLDEIIKTYLFDIPVKKSILRQAVILANPHAFRRNNPHWMYSDRQLKLPELQDIRRAIF
soluble fraction (log2): -0.317

HMNYGDVIEGQIMHVDRDELLVDIGSKSEGIIPAREFSTLTDEERAALSVGDHVLVFVVQAENQEGQAV
soluble fraction (log2): 0.297

HMNYIEWKNTFKKYLYLLPIKEEKETLAYFDEQYNKLNPKDLDNVENIFSDPIDKAAFVVAFYLEMEDEIK
soluble fraction (log2): -0.895

HMNYIGADAAKNMAAADAQVDTANASFSGANLGEKNGLSYYQVDFTANGREYHYAIDAMTGTVIESSSAAS
soluble fraction (log2): 0.122

HMNYNEKGEYTRTLTSGSETAVMTYRNFGETLDVALFKNGVQTDSLRLIKSEPGVLYRQSNGQFEKI
soluble fraction (log2): -0.158

HMNYSIVNVGFNNKSLFLRSAPGYSASRLLLPFATERAFVRETLSNGWSRVIVRGTEGYLPTEYVAD
soluble fraction (log2): 0.345

HMNYSKQRETILKVLRSTRSHPSVNWIYENVKKEIPDVGLATVYRNLKQLEAAGEIMRIQGDFPEERWDGF
soluble fraction (log2): -1.65

HMNYTALLNNFSENMKKRRVELSLSQKELASIVGVSVRTIQNYENKKTIPTSAVMESISIALDMGLEKMID
soluble fraction (log2): -1.91

HMNYTQAQIDRANAVSLEDFLRTQGETLIKSGREYRWKEHDSLTVRGNKWFRHSQSKGGYPIDFVMEFTA
soluble fraction (log2): 0.108

HMNYYYKDNQYWYVGFRYDERLVKEIKRFVGAGYNPENKEWYIPFTLPTVAPLQKWLHDNGFVEGMNYYP
soluble fraction (log2): -2.56

HMPAAFALLTDREREIAALIAQRLTNREIAEKLYLSEGSVKQYVNQLYAKLGIEGDTRTKRRRLAEQAK
soluble fraction (log2): -0.641

HMPAAKARTWQEATHAFQRDFLLETLRRARFNAADAADQLGLARPALYTTAKRLGLDLVAERQRWEAEAH
soluble fraction (log2): -0.668

HMPAAPVFLQKDLLDAGLIGQADSAARREKLGKILGIGYGNGKVMLQRLNSFGIERDAFEQAVQE
soluble fraction (log2): 0.081

HMPAASDALAGELAQIARLDIAKLLAGDLSEADWSRITSATVQLSERHPDASDELTALVERIDTAYSARAT
soluble fraction (log2): 0.0397

HMPAEGWEASGDTWRYRQKDGSYITNAWVQDTDGKWYYFDESSLMVRNQTTSDGYYVGEDGVWTET
soluble fraction (log2): -0.136

HMPAELGVVVRNANLRSGPGTKYAIVGSAPAGTTVRIAGTNKAGDWYHLSSGRWIAAFLVDRN
soluble fraction (log2): -1.99

HMPAERLSMRKIYEILRLKYGHGLSNREVALSVSVSRSTVADYLLRAQAAGLSWPLPDGLDETGLEQRLFP
soluble fraction (log2): -3.96

HMPAFGALTLRQRDLVELIAQGLDNSQIAARLGLAEKTVRNHITMIFNKLEMENRSQVIVRARESGFGAVR
soluble fraction (log2): -1.87

HMPAKIIKKSFVYNPIHRDTEYLAQFLQGEGQVSASGDKLVYYGTVEDISRIKSVLQSVDTPS
soluble fraction (log2): 0.169

HMPALATKDSVLDGRAEVVSYVRDTSVFYLRVRVPQKQGYRSRRIDGVSTLPEAITKALDTYMDLGT
soluble fraction (log2): -2.6

HMPALELLVESKKPLLIHGEKIAEDINLFDREKYFIDDELIRIVKEFPSLKIILEHVSSKYGAD
soluble fraction (log2): -2.18

HMPAMYKAERMNQILSILADQGDVDVGTLARQFGVSLVTIRKDLTYLESSGQLVRTHGGAIAVA
soluble fraction (log2): -0.707

HMPASVEYIRLAAEQMTGQQVTIIEQPGNYAFILRIHLNDIYSLDLAALRARIDELKPAHLTYTVEQYD
soluble fraction (log2): -2.86

HMPATTMMVVVDRDLPYGHVLTDRDVRLETRRATSPGASVAFTSIDPVLGQSLTRPLGAGTPVGRADLR
soluble fraction (log2): -0.218

HMPAVVEFDVKPRGEVLVDGIWYGRIPELREVELRPGRHHLRVQNAGHPSLDLVVTLEPGERMTVTHTFA
soluble fraction (log2): -0.529

HMPDAENFRYRVPYTTEQNRLQYYEGDIRAENADKARDQVMQDAQKYFAQNTAFTPNYIDTDIISLD
soluble fraction (log2): 0.946

HMPDFAENAVYGKQREDSLYAHAYKHFQLGDTTTVRAAEHLSAEIYPLGQHRPKFMFLNAVTR
soluble fraction (log2): 0.309

HMPDITAAVARTLQALRADRGWSLDQLAARSGVSKGVLVALEQGRSNPNLATLARIGDAFGVPVTLLVDL
soluble fraction (log2): -1.45

HMPDPHSEARNIVLNQLNFMPRSRKELETALAKRNIEADVAKIVLDRFEEIGMVDDAAYAEL
soluble fraction (log2): 0.121

HMPDPLYLINGKIVNKSDFNNIDPRSIQSIEVLKANKALEAFGNDGKNGVIKITLKSSNDQM
soluble fraction (log2): -0.104

HMPEEGPSEDGNSFTAKFKLGSDVQGAMEQADAAAKAGLQDAGKGTGQITSRAQVGGYIYSTATA
soluble fraction (log2): 0.142

HMPEIFYRKIHRTDHDQIALDAEMIRLLIAIDEKKSLSQIAAEVQMEPMALKKNLGKLIQLGLVEPIK
soluble fraction (log2): -0.616

HMPELSNNLDRDKVALKNFNESLKDGLTPAEAYANHLTNVSKAAQEAARQSNGLPVDIDKYHNSQLAASMA
soluble fraction (log2): 0.378

HMPEMAIRTLRLRNQRGAAVAAEWSRITASLLELRQVEFVNPVDQLIVLKGPEPWAGVAEELVRQLDV
soluble fraction (log2): -2.55

HMPEQLLNTRIPLEFAGRRFDASLAELFPDYSRSRLAAWIKDGAARLDGETVAPRHTVRGGEQVEILVRM
soluble fraction (log2): -0.729

HMPERLTYVHPDGAEPMRADKALAAFLSGRISRSRLLGSFSAGKVMAGGKPVEKKLLLRAGDALEVELPEP
soluble fraction (log2): -0.239

HMPERMLEPLLNGNEIMKVTQLQPGPKVGLIRDALLQAQISGDVTDTESAKAFVQDYAKRNI
soluble fraction (log2): 0.0453

HMPESETIMVDVKGAVQSEGVYELPSTARVNDAIEAAGGFSDQADKKSVNLAQKLSDEAVVYVASQGENV
soluble fraction (log2): 0.76
